# T1: Bovine, dephosphorylated, Myelin Basic Protein (MBP), P02687
# T1 chain: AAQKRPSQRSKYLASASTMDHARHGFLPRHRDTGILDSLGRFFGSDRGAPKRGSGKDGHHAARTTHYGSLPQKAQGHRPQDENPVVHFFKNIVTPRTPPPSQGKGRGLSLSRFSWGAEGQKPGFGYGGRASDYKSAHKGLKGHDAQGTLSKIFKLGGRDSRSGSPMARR
# B1: MAP2K3(MEK3) (protein)
# chain: MSKPPAPNPTPPRNLDSRTFITIGDRNFEVEADDLVTISELGRGAYGVVEKVRHAQSGTIMAVKRIRATVNSQEQKRLLMDLDINMRTVDCFYTVTFYGALFREGDVWICMELMDTSLDKFYRKVLDKNMTIPEDILGEIAVSIVRALEHLHSKLSVIHRDVKPSNVLINKEGHVKMCDFGISGYLVDSVAKTMDAGCKPYMAPERINPELNQKGYNVKSDVWSLGITMIEMAILRFPYESWGTPFQQLKQVVEEPSPQLPADRFSPEFVDFTAQCLRKNPAERMSYLELMEHPFFTLHKTKKTDIAAFVKEILGEDS
# B2: MAP3K2(MEKK2) (protein)
# chain: MDDQQALNSIMQDLAVLHKASRPALSLQETRKAKSSSPKKQNDVRVKFEHRGEKRILQFPRPVKLEDLRSKAKIAFGQSMDLHYTNNELVIPLTTQDDLDKAVELLDRSIHMKSLKILLVINGSTQATNLEPLPSLEDLDNTVFGAERKKRLSIIGPTSRDRSSPPPGYIPDELHQVARNGSFTSINSEGEFIPESMDQMLDPLSLSSPENSGSGSCPSLDSPLDGESYPKSRMPRAQSYPDNHQEFSDYDNPIFEKFGKGGTYPRRYHVSYHHQEYNDGRKTFPRARRTQGTSLRSPVSFSPTDHSLSTSSGSSIFTPEYDDSRIRRRGSDIDNPTLTVMDISPPSRSPRAPTNWRLGKLLGQGAFGRVYLCYDVDTGRELAVKQVQFDPDSPETSKEVNALECEIQLLKNLLHERIVQYYGCLRDPQEKTLSIFMEYMPGGSIKDQLKAYGALTENVTRKYTRQILEGVHYLHSNMIVHRDIKGANILRDSTGNVKLGDFGASKRLQTICLSGTGMKSVTGTPYWMSPEVISGEGYGRKADIWSVACTVVEMLTEKPPWAEFEAMAAIFKIATQPTNPKLPPHVSDYTRDFLKRIFVEAKLRPSADELLRHMFVHYH
# B3: MAP4K4(HGK) (protein)
# chain: MANDSPAKSLVDIDLSSLRDPAGIFELVEVVGNGTYGQVYKGRHVKTGQLAAIKVMDVTEDEEEEIKLEINMLKKYSHHRNIATYYGAFIKKSPPGHDDQLWLVMEFCGAGSITDLVKNTKGNTLKEDWIAYISREILRGLAHLHIHHVIHRDIKGQNVLLTENAEVKLVDFGVSAQLDRTVGRRNTFIGTPYWMAPEVIACDENPDATYDYRSDLWSCGITAIEMAEGAPPLCDMHPMRALFLIPRNPPPRLKSKKWSKKFFSFIEGCLVKNYMQRPSTEQLLKHPFIRDQPNERQVRIQLKDHIDRTRKKRGEKDETEYEYSGSEE
# B4: MAPK11(p38B) (protein)
# chain: MSGPRAGFYRQELNKTVWEVPQRLQGLRPVGSGAYGSVCSAYDARLRQKVAVKKLSRPFQSLIHARRTYRELRLLKHLKHENVIGLLDVFTPATSIEDFSEVYLVTTLMGADLNNIVKCQALSDEHVQFLVYQLLRGLKYIHSAGIIHRDLKPSNVAVNEDCELRILDFGLARQADEEMTGYVATRWYRAPEIMLNWMHYNQTVDIWSVGCIMAELLQGKALFPGSDYIDQLKRIMEVVGTPSPEVLAKISSEHARTYIQSLPPMPQKDLSSIFRGANPLAIDLLGRMLVLDSDQRVSAAEALAHAYFSQYHDPEDEPEAEPYDESVEAKERTLEEWKELTYQEVLSFKPPEPPKPPGSLEIEQ
# B5: MAP3K11(MLK3) (protein)
# chain: MEPLKSLFLKSPLGSWNGSGSGGGGGGGGGRPEGSPKAAGYANPVWTALFDYEPSGQDELALRKGDRVEVLSRDAAISGDEGWWAGQVGGQVGIFPSNYVSRGGGPPPCEVASFQELRLEEVIGIGGFGKVYRGSWRGELVAVKAARQDPDEDISVTAESVRQEARLFAMLAHPNIIALKAVCLEEPNLCLVMEYAAGGPLSRALAGRRVPPHVLVNWAVQIARGMHYLHCEALVPVIHRDLKSNNILLLQPIESDDMEHKTLKITDFGLAREWHKTTQMSAAGTYAWMAPEVIKASTFSKGSDVWSFGVLLWELLTGEVPYRGIDCLAVAYGVAVNKLTLPIPSTCPEPFAQLMADCWAQDPHRRPDFASILQQLEALEAQVLREMPRDSFHSMQEGWKREIQGLFDELRAKEKELLSREEELTRAAREQRSQAEQLRRREHLLAQWELEVFERELTLLLQQVDRERPHVRRRRGTFKRSKLRARDGGERISMPLDFKHRITVQASPGLDRRRNVFEVGPGDSPTFPRFRAIQLEPAEPGQAWGRQSPRRLEDSSNGERRACWAWGPSSPKPGEAQNGRRRSRMDEATWYLDSDDSSPLGSPSTPPALNGNPPRPSLEPEEPKRPVPAERGSSSGTPKLIQRALLRGTALLASLGLGRDLQPPGGPGRERGESPTTPPTPTPAPCPTEPPPSPLICFSLKTPDSPPTPAPLLLDLGIPVGQRSAKSPRREEEPRGGTVSPPPGTSRSAPGTPGTPRSPPLGLISRPRPSPLRSRIDPWSFVSAGPRPSPLPSPQPAPRRAPWTLFPDSDPFWDSPPANPFQGGPQDCRAQTKDMGAQAPWVPEAGP
# B6: MAP2K6(MKK6) (protein)
# chain: MSQSKGKKRNPGLKIPKEAFEQPQTSSTPPRDLDSKACISIGNQNFEVKADDLEPIMELGRGAYGVVEKMRHVPSGQIMAVKRIRATVNSQEQKRLLMDLDISMRTVDCPFTVTFYGALFREGDVWICMELMDTSLDKFYKQVIDKGQTIPEDILGKIAVSIVKALEHLHSKLSVIHRDVKPSNVLINALGQVKMCDFGISGYLVDSVAKTIDAGCKPYMAPERINPELNQKGYSVKSDIWSLGITMIELAILRFPYDSWGTPFQQLKQVVEEPSPQLPADKFSAEFVDFTSQCLKKNSKERPTYPELMQHPFFTLHESKGTDVASFVKLILGD
# B7: MAP2K6, mutant (protein)
# chain: MSQSKGKKRNPGLKIPKEAFEQPQTSSTPPRDLDSKACISIGNQNFEVKADDLEPIMELGRGAYGVVEKMRHVPSGQIMAVKRIRATVNSQEQKRLLMDLDISMRTVDCPFTVTFYGALFREGDVWICMELMDTSLDKFYKQVIDKGQTIPEDILGKIAVSIVKALEHLHSKLSVIHRDVKPSNVLINALGQVKMCDFGISGYLVDEVAKEIDAGCKPYMAPERINPELNQKGYSVKSDIWSLGITMIELAILRFPYDSWGTPFQQLKQVVEEPSPQLPADKFSAEFVDFTSQCLKKNSKERPTYPELMQHPFFTLHESKGTDVASFVKLILGD
# B8: MAP3K9(MLK1) (protein)
# chain: MEPSRALLGCLASAAAAAPPGEDGAGAGAEEEEEEEEEAAAAVGPGELGCDAPLPYWTAVFEYEAAGEDELTLRLGDVVEVLSKDSQVSGDEGWWTGQLNQRVGIFPSNYVTPRSAFSSRCQPGGEDPSCYPPIQLLEIDFAELTLEEIIGIGGFGKVYRAFWIGDEVAVKAARHDPDEDISQTIENVRQEAKLFAMLKHPNIIALRGVCLKEPNLCLVMEFARGGPLNRVLSGKRIPPDILVNWAVQIARGMNYLHDEAIVPIIHRDLKSSNILILQKVENGDLSNKILKITDFGLAREWHRTTKMSAAGTYAWMAPEVIRASMFSKGSDVWSYGVLLWELLTGEVPFRGIDGLAVAYGVAMNKLALPIPSTCPEPFAKLMEDCWNPDPHSRPSFTNILDQLTTIEESGFFEMPKDSFHCLQDNWKHEIQEMFDQLRAKEKELRTWEEELTRAALQQKNQEELLRRREQELAEREIDILERELNIIIHQLCQEKPRVKK
# B9: MAP2K2(MEK2) (protein)
# chain: MLARRKPVLPALTINPTIAEGPSPTSEGASEANLVDLQKKLEELELDEQQKKRLEAFLTQKAKVGELKDDDFERISELGAGNGGVVTKVQHRPSGLIMARKLIHLEIKPAIRNQIIRELQVLHECNSPYIVGFYGAFYSDGEISICMEHMDGGSLDQVLKEAKRIPEEILGKVSIAVLRGLAYLREKHQIMHRDVKPSNILVNSRGEIKLCDFGVSGQLIDSMANSFVGTRSYMAPERLQGTHYSVQSDIWSMGLSLVELAVGRYPIPPPDAKELEAIFGRPVVDGEEGEPHSISPRPRPPGRPVSGHGMDSRPAMAIFELLDYIVNEPPPKLPNGVFTPDFQEFVNKCLIKNPAERADLKMLTNHTFIKRSEVEEVDFAGWLCKTLRLNQPGTPTRTAV
# B10: MAP3K5(ASK1) (protein)
# chain: MSTEADEGITFSVPPFAPSGFCTIPEGGICRRGGAAAVGEGEEHQLPPPPPGSFWNVESAAAPGIGCPAATSSSSATRGRGSSVGGGSRRTTVAYVINEASQGQLVVAESEALQSLREACETVGATLETLHFGKLDFGETTVLDRFYNADIAVVEMSDAFRQPSLFYHLGVRESFSMANNIILYCDTNSDSLQSLKEIICQKNTMCTGNYTFVPYMITPHNKVYCCDSSFMKGLTELMQPNFELLLGPICLPLVDRFIQLLKVAQASSSQYFRESILNDIRKARNLYTGKELAAELARIRQRVDNIEVLTADIVINLLLSYRDIQDYDSIVKLVETLEKLPTFDLASHHHVKFHYAFALNRRNLPGDRAKALDIMIPMVQSEGQVASDMYCLVGRIYKDMFLDSNFTDTESRDHGASWFKKAFESEPTLQSGINYAVLLLAAGHQFESSFELRKVGVKLSSLLGKKGNLEKLQSYWEVGFFLGASVLANDHMRVIQASEKLFKLKTPAWYLKSIVETILIYKHFVKLTTEQPVAKQELVDFWMDFLVEATKTDVTVVRFPVLILEPTKIYQPSYLSINNEVEEKTISIWHVLPDDKKGIHEWNFSASSVRGVSISKFEERCCFLYVLHNSDDFQIYFCTELHCKKFFEMVNTITEEKGRSTEEGDCESDLLEYDYEYDENGDRVVLGKGTYGIVYAGRDLSNQVRIAIKEIPERDSRYSQPLHEEIALHKHLKHKNIVQYLGSFSENGFIKIFMEQVPGGSLSALLRSKWGPLKDNEQTIGFYTKQILEGLKYLHDNQIVHRDIKGDNVLINTYSGVLKISDFGTSKRLAGINPCTETFTGTLQYMAPEIIDKGPRGYGKAADIWSLGCTIIEMATGKPPFYELGEPQAAMFKVGMFKVHPEIPESMSAEAKAFILKCFEPDPDKRACANDLLVDEFLKVSSKKKKTQPKLSALSAGSNEYLRSISLPVPVLVEDTSSSSEYGSVSPDTELKVDPFSFKTRAKSCGERDVKGIRTLFLGIPDENFEDHSAPPSPEEKDSGFFMLRKDSERRATLHRILTEDQDKIVRNLMESLAQGAEEPKLKWEHITTLIASLREFVRSTDRKIIATTLSKLKLELDFDSHGISQVQVVLFGFQDAVNKVLRNHNIKPHWMFALDSIIRKAVQTAITILVPELRPHFSLASESDTADQEDLDVEDDHEEQPSNQTVRRPQAVIEDAVATSGVSTLSSTVSHDSQSAHRSLNVQLGRMKIETNRLLEELVRKEKELQALLHRAIEEKDQEIKHLKLKSQPIEIPELPVFHLNSSGTNTEDSELTDWLRVNGADEDTISRFLAEDYTLLDVLYYVTRDDLKCLRLRGGMLCTLWKAIIDFRNKQT
# Molecular target: T1, Bovine, dephosphorylated, Myelin Basic …
row,Protein,MBP Kinase Activity
1,B1,Negative
2,B2,Weak
3,B3,Strong
4,B4,Strong
5,B5,Negative
6,B6,Weak
7,B7,Negative
8,B8,Strong
9,B9,Negative
10,B10,Weak

# Reference: patent US20090099029
